Experimental data taken from publication PMC4615246 (Nucleus, 2015).

T1: LacI-CFP-Nup133 (human, UniProt Q8WUM0 1-1156)
T1 sequence: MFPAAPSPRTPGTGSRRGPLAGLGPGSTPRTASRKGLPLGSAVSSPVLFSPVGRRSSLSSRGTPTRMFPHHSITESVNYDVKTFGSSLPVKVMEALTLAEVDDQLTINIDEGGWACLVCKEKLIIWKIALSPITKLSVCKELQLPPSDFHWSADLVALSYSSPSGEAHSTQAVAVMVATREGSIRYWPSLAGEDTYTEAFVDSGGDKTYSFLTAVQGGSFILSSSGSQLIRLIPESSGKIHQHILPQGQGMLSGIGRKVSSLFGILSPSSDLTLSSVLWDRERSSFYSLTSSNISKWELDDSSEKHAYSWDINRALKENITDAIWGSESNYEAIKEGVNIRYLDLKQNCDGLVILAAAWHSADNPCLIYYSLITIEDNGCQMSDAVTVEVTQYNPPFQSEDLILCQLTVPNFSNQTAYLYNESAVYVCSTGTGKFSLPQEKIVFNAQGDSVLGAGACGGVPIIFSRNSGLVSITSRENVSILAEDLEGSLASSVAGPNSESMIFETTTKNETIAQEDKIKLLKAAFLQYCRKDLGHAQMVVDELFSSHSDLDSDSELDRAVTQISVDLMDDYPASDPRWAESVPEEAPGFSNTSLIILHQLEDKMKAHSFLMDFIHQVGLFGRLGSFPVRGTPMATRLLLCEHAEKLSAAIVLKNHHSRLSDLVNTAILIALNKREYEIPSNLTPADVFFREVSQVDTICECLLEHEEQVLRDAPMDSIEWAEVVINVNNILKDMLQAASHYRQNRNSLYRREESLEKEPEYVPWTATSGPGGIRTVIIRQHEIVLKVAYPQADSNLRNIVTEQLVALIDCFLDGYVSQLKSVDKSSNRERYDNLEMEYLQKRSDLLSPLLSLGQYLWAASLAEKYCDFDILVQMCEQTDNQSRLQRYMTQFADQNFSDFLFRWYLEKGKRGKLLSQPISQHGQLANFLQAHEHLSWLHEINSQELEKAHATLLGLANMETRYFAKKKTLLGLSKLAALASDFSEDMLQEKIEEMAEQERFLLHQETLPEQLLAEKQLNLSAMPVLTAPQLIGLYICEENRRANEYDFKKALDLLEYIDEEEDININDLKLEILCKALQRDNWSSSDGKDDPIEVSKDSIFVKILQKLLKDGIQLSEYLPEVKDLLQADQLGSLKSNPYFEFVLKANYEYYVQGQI

T2: LacI-CFP-Nup50 (human, UniProt Q9UKX7 1-468)
T2 sequence: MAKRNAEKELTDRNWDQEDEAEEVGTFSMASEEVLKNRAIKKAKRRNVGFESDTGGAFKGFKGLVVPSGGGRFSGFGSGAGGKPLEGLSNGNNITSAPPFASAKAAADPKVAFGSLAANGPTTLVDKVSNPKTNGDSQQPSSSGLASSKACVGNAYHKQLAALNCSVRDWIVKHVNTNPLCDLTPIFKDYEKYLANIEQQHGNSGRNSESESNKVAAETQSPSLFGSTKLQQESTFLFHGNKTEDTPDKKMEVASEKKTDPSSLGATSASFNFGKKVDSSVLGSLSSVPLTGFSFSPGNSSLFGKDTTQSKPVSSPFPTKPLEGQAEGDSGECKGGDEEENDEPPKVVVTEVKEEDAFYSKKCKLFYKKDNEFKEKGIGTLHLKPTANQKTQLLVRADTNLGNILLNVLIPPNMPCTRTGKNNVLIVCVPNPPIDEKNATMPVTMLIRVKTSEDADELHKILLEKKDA

T3: LacI-CFP-Nup107 (human, UniProt P57740 1-925)
T3 sequence: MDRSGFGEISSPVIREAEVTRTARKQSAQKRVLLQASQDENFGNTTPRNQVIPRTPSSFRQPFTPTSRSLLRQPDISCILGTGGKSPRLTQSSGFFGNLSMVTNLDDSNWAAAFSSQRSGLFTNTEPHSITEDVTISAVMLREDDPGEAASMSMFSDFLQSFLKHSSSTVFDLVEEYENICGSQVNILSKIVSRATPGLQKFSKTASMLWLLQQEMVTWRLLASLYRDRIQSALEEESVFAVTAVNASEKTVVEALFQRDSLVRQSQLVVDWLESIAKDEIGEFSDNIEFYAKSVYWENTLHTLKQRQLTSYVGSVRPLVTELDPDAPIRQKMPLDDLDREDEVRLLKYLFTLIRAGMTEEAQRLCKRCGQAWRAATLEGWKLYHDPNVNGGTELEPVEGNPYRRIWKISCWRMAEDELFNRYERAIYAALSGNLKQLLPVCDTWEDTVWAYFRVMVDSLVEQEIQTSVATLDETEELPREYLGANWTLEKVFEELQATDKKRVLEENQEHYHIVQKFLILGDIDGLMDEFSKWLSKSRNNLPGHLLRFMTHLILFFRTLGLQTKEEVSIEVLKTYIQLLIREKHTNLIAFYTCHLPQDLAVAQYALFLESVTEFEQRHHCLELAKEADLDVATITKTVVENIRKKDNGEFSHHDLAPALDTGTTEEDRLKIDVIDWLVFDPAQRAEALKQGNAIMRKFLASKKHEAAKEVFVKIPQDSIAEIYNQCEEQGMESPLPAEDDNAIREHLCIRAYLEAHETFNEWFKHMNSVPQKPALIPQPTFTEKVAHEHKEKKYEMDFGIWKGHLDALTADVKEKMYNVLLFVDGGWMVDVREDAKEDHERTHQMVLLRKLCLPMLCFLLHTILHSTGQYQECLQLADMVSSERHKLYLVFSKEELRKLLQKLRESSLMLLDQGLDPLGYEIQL


Legend:
Assay in all cases: LacI/LacO array recruitment in cells
[1] = target: T1, LacI-CFP-Nup133
[2] = target: T2, LacI-CFP-Nup50
[3] = target: T3, LacI-CFP-Nup107

| percent of transfected cells showing colocalization [1] [%] | percent of transfected cells showing colocalization [2] [%] | percent of transfected cells showing colocalization [3] [%] | Binder |
| --- | --- | --- | --- |
| 20 | 6 |  | Nup53 (endogenous) (natural protein) MAAFAVEPQGPALGSEPMMLGSPTSPKPGVNAQFLPGFLMGDLPAPVTPQPRSISGPSVGVMEMRSPLLAGGSPPQPVVPAHKDKSGAPPVRSIYDDISSPGLGSTPLTSRRQPNISVMQSPLVGVTSTPGTGQSMFSPASIGQPRKTTLSPAQLDPFYTQGDSLTSEDHLDDSWVTVFGFPQASASYILLQFAQYGNILKHVMSNTGNWMHIRYQSKLQARKALSKDGRIFGESIMIGVKPCIDKSVMESSDRCALSSPSLAFTPPIKTLGTPTQPGSTPRISTMRPLATAYKASTSDYQVISDRQTPKKDESLVSKAMEYMFGW |
| 5 | 43 | 24 | Nup62 (endogenous) (natural protein) MSGFNFGGTGAPTGGFTFGTAKTATTTPATGFSFSTSGTGGFNFGAPFQPATSTPSTGLFSLATQTPATQTTGFTFGTATLASGGTGFSLGIGASKLNLSNTAATPAMANPSGFGLGSSNLTNAISSTVTSSQGTAPTGFVFGPSTTSVAPATTSGGFSFTGGSTAQPSGFNIGSAGNSAQPTAPATLPFTPATPAATTAGATQPAAPTPTATITSTGPSLFASIATAPTSSATTGLSLCTPVTTAGAPTAGTQGFSLKAPGAASGTSTTTSTAATATATTTSSSSTTGFALNLKPLAPAGIPSNTAAAVTAPPGPGAAAGAAASSAMTYAQLESLINKWSLELEDQERHFLQQATQVNAWDRTLIENGEKITSLHREVEKVKLDQKRLDQELDFILSQQKELEDLLSPLEELVKEQSGTIYLQHADEEREKTYKLAENIDAQLKRMAQDLKDIIEHLNTSGAPADTSDPLQQICKILNAHMDSLQWIDQNSALLQRKVEEVTKVCEGRRKEQERSFRITFD |
| 21 |  | 9 | Nup93 (endogenous) (natural protein) MDTEGFGELLQQAEQLAAETEGISELPHVERNLQEIQQAGERLRSRTLTRTSQETADVKASVLLGSRGLDISHISQRLESLSAATTFEPLEPVKDTDIQGFLKNEKDNALLSAIEESRKRTFGMAEEYHRESMLVEWEQVKQRILHTLLASGEDALDFTQESEPSYISDVGPPGRSSLDNIEMAYARQIYIYNEKIVNGHLQPNLVDLCASVAELDDKSISDMWTMVKQMTDVLLTPATDALKNRSSVEVRMEFVRQALAYLEQSYKNYTLVTVFGNLHQAQLGGVPGTYQLVRSFLNIKLPAPLPGLQDGEVEGHPVWALIYYCMRCGDLLAASQVVNRAQHQLGEFKTWFQEYMNSKDRRLSPATENKLRLHYRRALRNNTDPYKRAVYCIIGRCDVTDNQSEVADKTEDYLWLKLNQVCFDDDGTSSPQDRLTLSQFQKQLLEDYGESHFTVNQQPFLYFQVLFLTAQFEAAVAFLFRMERLRCHAVHVALVLFELKLLLKSSGQSAQLLSHEPGDPPCLRRLNFVRLLMLYTRKFESTDPREALQYFYFLRDEKDSQGENMFLRCVSELVIESREFDMILGKLENDGSRKPGVIDKFTSDTKPIINKVASVAENKGLFEEAAKLYDLAKNADKVLELMNKLLSPVVPQISAPQSNKERLKNMALSIAERYRAQGISANKFVDSTFYLLLDLITFFDEYHSGHIDRAFDIIERLKLVPLNQESVEERVAAFRNFSDEIRHNLSEVLLATMNILFTQFKRLKGTSPSSSSRPQRVIEDRDSQLRSQARTLITFAGMIPYRTSGDTNARLVQMEVLMN |
| 44 | 4 | 39 | Nup160 (endogenous) (natural protein) MLHLSAAPPAPPPEVTATARPCLCSVGRRGDGGKMAAAGALERSFVELSGAERERPRHFREFTVCSIGTANAVAGAVKYSESAGGFYYVESGKLFSVTRNRFIHWKTSGDTLELMEESLDINLLNNAIRLKFQNCSVLPGGVYVSETQNRVIILMLTNQTVHRLLLPHPSRMYRSELVVDSQMQSIFTDIGKVDFTDPCNYQLIPAVPGISPNSTASTAWLSSDGEALFALPCASGGIFVLKLPPYDIPGMVSVVELKQSSVMQRLLTGWMPTAIRGDQSPSDRPLSLAVHCVEHDAFIFALCQDHKLRMWSYKEQMCLMVADMLEYVPVKKDLRLTAGTGHKLRLAYSPTMGLYLGIYMHAPKRGQFCIFQLVSTESNRYSLDHISSLFTSQETLIDFALTSTDIWALWHDAENQTVVKYINFEHNVAGQWNPVFMQPLPEEEIVIRDDQDPREMYLQSLFTPGQFTNEALCKALQIFCRGTERNLDLSWSELKKEVTLAVENELQGSVTEYEFSQEEFRNLQQEFWCKFYACCLQYQEALSHPLALHLNPHTNMVCLLKKGYLSFLIPSSLVDHLYLLPYENLLTEDETTISDDVDIARDVICLIKCLRLIEESVTVDMSVIMEMSCYNLQSPEKAAEQILEDMITIDVENVMEDICSKLQEIRNPIHAIGLLIREMDYETEVEMEKGFNPAQPLNIRMNLTQLYGSNTAGYIVCRGVHKIASTRFLICRDLLILQQLLMRLGDAVIWGTGQLFQAQQDLLHRTAPLLLSYYLIKWGSECLATDVPLDTLESNLQHLSVLELTDSGALMANRFVSSPQTIVELFFQEVARKHIISHLFSQPKAPLSQTGLNWPEMITAITSYLLQLLWPSNPGCLFLECLMGNCQYVQLQDYIQLLHPWCQVNVGSCRFMLGRCYLVTGEGQKALECFCQAASEVGKEEFLDRLIRSEDGEIVSTPRLQYYDKVLRLLDVIGLPELVIQLATSAITEAGDDWKSQATLRTCIFKHHLDLGHNSQAYEALTQIPDSSRQLDCLRQLVVVLCERSQLQDLVEFPYVNLHNEVVGIIESRARAVDLMTHNYYELLYAFHIYRHNYRKAGTVMFEYGMRLGREVRTLRGLEKQGNCYLAALNCLRLIRPEYAWIVQPVSGAVYDRPGASPKRNHDGECTAAPTNRQIEILELEDLEKECSLARIRLTLAQHDPSAVAVAGSSSAEEMVTLLVQAGLFDTAISLCQTFKLPLTPVFEGLAFKCIKLQFGGEAAQAEAWAWLAANQLSSVITTKESSATDEAWRLLSTYLERYKVQNNLYHHCVINKLLSHGVPLPNWLINSYKKVDAAELLRLYLNYDLLEEAVDLVSEYVDAVLGKGHQYFGIEFPLSATAPMVWLPYSSIDQLLQALGENSANSHNIALSQKILDKLEDYQQKVDKATRDLLYRRTL |
